Experimental data taken from the supplement of paper PMC7877785.
± gives the uncertainty stated by the source.

Assay: self-splicing fitness, log relative to wild type (ln ratio); higher = more splicing; Tetrahymena group I intron in knt gene, E. coli kanamycin selection, DiMSum; sequences stand for … in CUCUCU…GGAGGGAAAAGUUAUCAGGCAUGCACCUGGUAGCUAGUCUUUAAACCAAUAGAUUGCAUCGGUUUAAAAGGCAAGACCGUCAAAUUGCGGGAAAGGGGUCAACAGCCGUUCAGUACCAAGUCUCAGGGGAAACUUUGAGAUGGCCUUGCAAAGGGUAUGGUAAUAAGCUGACGGACAUGGUCCUAACCACGCAGCCAAGUCCUAAGUCAACAGAUCUUCUGUUGAUAUGGAUGCAGUUCACAGACUAAAUGUCGGUCGGGGAAGAUGUAUUCUUCUCAUAAGAUAUAGUCGGACCUCUCCUUAAUGGGAGCUAGCGGAUGAAGUGAUGCAACACUGGAGCCGCUGGGAACUAAUUUGUAUGCGAAAGUAUAUUGAUUAGUUUUGGAGUACUCGUGGUCG
Procedure, shortened: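 Library with all eight P1ex-region intron nucleotides randomised, intron inside the knt kanamycin-resistance gene on pET-22b(+), in E. coli BL21(DE3). Cells grew overnight at 37°C or 30°C on LB agar with or without 25 μg/mL kanamycin (plus 100 μg/mL carbenicillin, 50 μM IPTG, 0.2% rhamnose), in six replicate transformations. Pooled colonies were amplicon-sequenced on Illumina HiSeq 2500. DiMSum fitness is the error-weighted combination of wild-type-normalised replicate fold changes, kanamycin versus none.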

Sequence | self-splicing fitness (ln) (30 °C) | self-splicing fitness (ln) (37 °C)
CAGCAGCAAUAUUACGGCCA | -0.605 ± 0.091 | -0.22 ± 0.11
CAGUAGCAAUAUUACGCGAU | -2.39 ± 0.28 | -2.67 ± 0.34
UAAUAGCAAUAUUACGGGGU | -3.73 ± 0.42 | -1.38 ± 0.45
UCUAAGCAAUAUUACGCUGU | -2.47 ± 0.18 | -2.59 ± 0.21
GAUGAGCAAUAUUACGUGAC | -3.05 ± 0.34 | -2.3 ± 0.42
GGCAAGCAAUAUUACGCACC | -2.15 ± 0.32 | -2.31 ± 0.24
UCCGAGCAAUAUUACGCCAC | -2.05 ± 0.4 | 
UGGUAGCAAUAUUACGCGAG | -1.29 ± 0.17 | -2.17 ± 0.24
GUCCAGCAAUAUUACGGGGU | -3.62 ± 0.19 | -2.65 ± 0.15
UCUCAGCAAUAUUACGGACA | -0.71 ± 0.099 | -0.369 ± 0.1
GCCUAGCAAUAUUACGAAUA | -2.12 ± 0.43 | 
CAUAAGCAAUAUUACGGGUG | -2.3 ± 0.08 | -1.17 ± 0.078
UGAUAGCAAUAUUACGGUUC |  | -1.46 ± 0.27
CCUCAGCAAUAUUACGACGC | -3.56 ± 0.4 | -2.43 ± 0.45
CUAUAGCAAUAUUACGUGUU | -3.74 ± 0.16 | -3.15 ± 0.27
CGGUAGCAAUAUUACGUAGA | -1.73 ± 0.053 | -1.89 ± 0.082
CAAUAGCAAUAUUACGUGAC | -3.84 ± 0.25 | -2.21 ± 0.22
CCGAAGCAAUAUUACGGACG | -0.955 ± 0.11 | 0.515 ± 0.12
CCUAAGCAAUAUUACGCGGC | -1.89 ± 0.33 | -2.13 ± 0.42
UCGCAGCAAUAUUACGCCUU | -1.44 ± 0.12 | -0.631 ± 0.15
AAAGAGCAAUAUUACGUCAA | -3.31 ± 0.18 | -2.61 ± 0.19
AGAUAGCAAUAUUACGUAUA | -1.91 ± 0.19 | -2.27 ± 0.28
UGUGAGCAAUAUUACGUGUA | -1.49 ± 0.29 | -1.46 ± 0.28
GGAUAGCAAUAUUACGUAGA | -1.01 ± 0.17 | -1.4 ± 0.21
GGCGAGCAAUAUUACGUGAC | -1.24 ± 0.18 | -1.65 ± 0.29
UAGCAGCAAUAUUACGGUAU | -2.97 ± 0.092 | -2.41 ± 0.094

Sequence | self-splicing fitness (ln) (30 °C) | self-splicing fitness (ln) (37 °C)
GCCCAGCAAUAUUACGACAA | -2.72 ± 0.14 | -1.27 ± 0.11
UUGCAGCAAUAUUACGGGCG | -0.91 ± 0.11 | -0.511 ± 0.11
CUAGAGCAAUAUUACGACGG | -0.119 ± 0.12 | 0.393 ± 0.17
UGCUAGCAAUAUUACGGCCG | -0.359 ± 0.12 | 0.337 ± 0.14
GCACAGCAAUAUUACGAUCC | -0.381 ± 0.11 | -0.0747 ± 0.16
AUUUAGCAAUAUUACGAAUC | -4.21 ± 0.31 | -3.21 ± 0.35
GUAUAGCAAUAUUACGAGCG | -1.98 ± 0.16 | -1.39 ± 0.14
GGAGAGCAAUAUUACGGCAU | -2.03 ± 0.22 | 0.206 ± 0.22
ACCUAGCAAUAUUACGCGAU | -2.32 ± 0.078 | -0.981 ± 0.087
GCGCAGCAAUAUUACGCGGU | -3.82 ± 0.28 | -2.25 ± 0.22
AGAAAGCAAUAUUACGCUUA | -1.63 ± 0.11 | -0.632 ± 0.087
CCUCAGCAAUAUUACGCCUU | -3.95 ± 0.3 | -2.17 ± 0.22
GCUAAGCAAUAUUACGGAAA | -1.48 ± 0.2 | -2.28 ± 0.24
AUCAAGCAAUAUUACGAUCC | -2.34 ± 0.2 | -0.539 ± 0.21
UUUCAGCAAUAUUACGCAGA | -1.32 ± 0.27 | -1.6 ± 0.24
ACGUAGCAAUAUUACGUACU | -1.11 ± 0.11 | -2 ± 0.14
CUGCAGCAAUAUUACGAGGA | -3.68 ± 0.22 | -2.39 ± 0.18
UUGCAGCAAUAUUACGGUAA | -0.988 ± 0.099 | -0.0317 ± 0.093
UUCCAGCAAUAUUACGACAA | -0.945 ± 0.13 | 0.128 ± 0.16
CAGGAGCAAUAUUACGCGUC | -4.22 ± 0.36 | -3.04 ± 0.4
GGCGAGCAAUAUUACGAUAA | -1.64 ± 0.13 | -0.294 ± 0.15
ACCAAGCAAUAUUACGUUGU | -2.74 ± 0.094 | -0.985 ± 0.085
AUCCAGCAAUAUUACGCGCU | -3.57 ± 0.22 | -2.37 ± 0.22
UCCCAGCAAUAUUACGGAAA | -2.01 ± 0.19 | -0.716 ± 0.13
GCCCAGCAAUAUUACGGGAA | 0.0209 ± 0.051 | 0.313 ± 0.06
UUAGAGCAAUAUUACGCAUG | -1.12 ± 0.11 | -0.298 ± 0.12

Sequence | self-splicing fitness (ln) (30 °C) | self-splicing fitness (ln) (37 °C)
GAUUAGCAAUAUUACGCAAU | -2.41 ± 0.33 | -1.9 ± 0.36
UAUCAGCAAUAUUACGGUUA | -0.0611 ± 0.064 | 0.0198 ± 0.07
ACCGAGCAAUAUUACGAUUU | -2.41 ± 0.11 | -0.954 ± 0.11
CACCAGCAAUAUUACGACGC | -3.22 ± 0.19 | -1.39 ± 0.16
CAGAAGCAAUAUUACGAAUU | -3.5 ± 0.2 | -2.05 ± 0.27
GCCAAGCAAUAUUACGUCAA | -2.75 ± 0.34 | -1.97 ± 0.22
UCAAAGCAAUAUUACGAUUU | -3.58 ± 0.24 | -2.3 ± 0.22
AGAUAGCAAUAUUACGUCUA | -0.934 ± 0.24 | -0.474 ± 0.2
GGCCAGCAAUAUUACGAUUU | -1.9 ± 0.12 | -0.659 ± 0.13
CCGGAGCAAUAUUACGUCCA | -1.39 ± 0.21 | -1.66 ± 0.32
UGCGAGCAAUAUUACGAUUC | -2.7 ± 0.23 | 
GACUAGCAAUAUUACGUCGU | -3.23 ± 0.18 | -1.47 ± 0.13
CCAGAGCAAUAUUACGGGCG | -1.5 ± 0.085 | -0.383 ± 0.1
GCGAAGCAAUAUUACGUAUG | -4.39 ± 0.26 | -2.81 ± 0.16
GCCGAGCAAUAUUACGUCUC | -2.92 ± 0.22 | -1.44 ± 0.21
CGCAAGCAAUAUUACGACUU |  | -2.07 ± 0.25
AUACAGCAAUAUUACGCGUG | -0.923 ± 0.063 | -0.481 ± 0.082
CAUCAGCAAUAUUACGUUGA | -3 ± 0.15 | -3.46 ± 0.24
GGUAAGCAAUAUUACGGAGA | -3.47 ± 0.23 | -2.8 ± 0.22
GCGCAGCAAUAUUACGAAAA | -1.92 ± 0.21 | -1.7 ± 0.21
CUUAAGCAAUAUUACGAACU |  | -2.61 ± 0.38
CUAGAGCAAUAUUACGUCUA | -1.15 ± 0.12 | -0.248 ± 0.18
AACCAGCAAUAUUACGGUGC | -3.48 ± 0.16 | -1.75 ± 0.13
UUAAAGCAAUAUUACGAACA | -0.0579 ± 0.13 | 0.708 ± 0.18
AAUCAGCAAUAUUACGAAGA | -0.26 ± 0.087 | 0.0829 ± 0.099
GCUUAGCAAUAUUACGCCAA | -4.1 ± 0.43 | 
